T1: PAR-2 (Homo sapiens, UniProt P55085)
T1 sequence (P55085 26-397): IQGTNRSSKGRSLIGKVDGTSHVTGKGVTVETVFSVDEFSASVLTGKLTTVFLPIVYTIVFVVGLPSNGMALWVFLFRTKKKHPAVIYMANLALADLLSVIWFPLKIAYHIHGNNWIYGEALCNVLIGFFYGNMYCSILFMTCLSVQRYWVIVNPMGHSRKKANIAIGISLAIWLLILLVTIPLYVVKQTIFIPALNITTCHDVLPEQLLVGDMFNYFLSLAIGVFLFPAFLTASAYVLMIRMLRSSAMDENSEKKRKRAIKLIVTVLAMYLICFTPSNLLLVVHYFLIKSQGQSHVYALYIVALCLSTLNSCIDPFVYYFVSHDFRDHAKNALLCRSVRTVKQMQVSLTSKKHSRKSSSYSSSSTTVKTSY


Columns and labels:
Lewis rats [1] = experiment: Acute adjuvant-induced arthritis (C/K) model, knee joint thickness; type: in vivo; details: Lewis rat, group mean ± SEM
Procedure: This example describes acute and chronic models of arthritis. In both models, animals are anesthetized, for example by Ketamine/Xylazine mixture (mouse mix or rat mix, respectively) or isoflurane for all intraarticular (IA), periarticular (PA) injections or intradermal (ID) injections.
Joint injections, IA or PA, are targeted at either knees or hind limb paws. PA injections are equally divided across four sites surrounding the joint of interest. Paw injections are administered ID into the plantar area of the hind paw. To serve as an internal control, one knee or hind-limb paw is injected with vehicle alone or sterile PBS. Preparation of the injection area includes shaving the joint area after animals are anesthetized, and scrubbing with an iodine solution followed by an alcohol disinfectant. All articular injections are given with a 30-gauge needle or equivalent, and when needed by a gastight (i.e., Hamilton) syringe, for small injection volumes (i.e. 10 microL).
For induction of acute AIA (aAIA), animals are injected on day zero (D0) with 1-4% lambda-carrageenan and 1-4% kaolin (C/K) by IA injection in saline. Concentrations of both compounds are dependent on intended disease severity. Total injection volumes for the inducing agent are between 10-20 microL for mice and 60-80 microL for rat. Both concentration and injection volume are consistent with published methodologies (J Clin Invest. 2003; 111(1):35-41, and J Pharmacol Exp Ther. 2006; 316(3):1017-24). Alternatively, specific PAR-2 peptide agonists, or other activators of inflammation (such as trypsin, or human beta-tryptase [J Clin Invest. 2003; 111(1):35-41, J Pharmacol Exp Ther. 2006; 316(3):1017-24, J Pharmacol Sci. 2005 97(1):38-42, and Br J Pharmacol. 1999 127(5):1083-90]) or the equivalent, may be used. Concentrations used are selected for intended disease severity, and total injection volumes are appropriate to the animal being injected.
For both acute and chronic AIA studies, caliper measurements of joint diameter are taken of all joints of interest prior to any injection. Tracking of disease may include caliper measurements of joint diameter as well as flexible tape measurements of joint circumference, and visual scoring. Alternative methods (i.e., use of a plethysmometer) may also be used. Severity of cAIA is scored by one or both of the criteria shown below:
In this manner, 6-8 week old Lewis rats were injected with C/K plus treatment (or control) in the left knee, and negative control in each right knee, as for the acute model. Joint thickness was measured at set time points after treatment, using an average of three caliper readings. The change in thickness of the left knee as compared to the right knee was expressed as percent change, and is shown in Table 3 below.

Sprague Dawley rats = experiment: Carrageenan paw edema in Sprague Dawley rat (plethysmography); type: in vivo; details: antibodies IP 1.5 mg/rat, indomethacin 5 mg/kg
Procedure: (§1) This example describes the effects of PAR-2 antibodies on paw edema in an acute AIA model substantially as described previously. Briefly, 6-8 week old Sprague Dawley or Lewis rats (Charles River Laboratories, Wilmington, Mass.) were injected subcutaneously (SC) in the plantar region of the hind paw with 1% lambda carrageenan in one hind paw and control (saline) in the other. Blocking PAR-2 monoclonal antibody (1A1) or control (positive or negative control; see footnotes to Table 4) was administered intraperitoneally (IP) eighteen hours prior to adjuvant injection at 1.5 mg/rat (approximately 8-10 mg/kg), swelling was then measured by plethysomgraphy at selected time points. Data were expressed as volume of water in milliliters (mL) displaced per paw versus baseline measurements for that paw.

PAR-2 = molecular target: T1, PAR-2; experiment: FLIPR assay for Ca2+ mobilization; type: cell-based
Description: Hybridoma clones thus generated are screened for reactivity with PAR-2. Initial screening of hybridoma supernatants may utilize a peptide ELISA, a whole cell ELISA and/or a cell-based assay suitable for high-throughput screening (fluorometric microvolume assay technology or FMAT, substantially as described by Fiscella, et al., Nature Biotechnology 21:302-307; 2003). Hybridomas that are positive in this screening method may be further cultured to provide larger amounts of antibody, which can then be purified as described below and screened by additional cell-based assay(s) (for example, a flash plate assay using cells co-expressing apoaequorin, a Ca2+-sensitive photoprotein, substantially as described by Le Poul et al., J. Biomol. Screen. 7(1):57-65; 2002, and PAR-2), or a fluorometric imaging plate reader (FLIPR) assay, which is used to determine changes in intracellular Ca2+ levels, substantially as described in S. Pitchford, Genetic Engineering News vol. 18, Number 15 (1998) and/or Sullivan et al., Methods in Molecular Biology vol. […]
(§2) Several PAR-2 antibodies were tested in different assay formats; Table 2 summarizes the results. IC50 values were determined in a FLIPR assay for Ca2+ mobilization described previously; binding to the upstream region of the cleavage site versus the downstream region of the cleavage site was determined using the Western blot assay described previously.

[2] = molecular target: T2, N-terminal PAR-2/Fc (full length and truncated) (Homo sapiens, UniProt P55085); experiment: Western blot, binding to uncleaved versus clipped N-terminal PAR-2/Fc; details: for Binding to Cleavage Site Down stream: downstream binder binds both full length and truncated PAR-2-Fc; for Binding to Cleavage Site Up stream: upstream binder binds only full-length PAR-2/Fc
T2 construct: made in house; host or cells: CHO cells (10% FCS for uncleaved; serum-free for clipped)
Description: N-terminal PAR-2/Fc polypeptide (SEQ ID NO:6) is expressed in suitable mammalian cells such as CHO cells. Expression supernatant from CHO expression cells cultured in serum-free media contain a CHO cell trypsin-like serine protease that cleaves PAR-2/Fc at the activation Arg-Ser bond, generating the “clipped” version of the PAR-2/Fc polypeptide. CHO expression cells cultured in 10% fetal calf serum (which contains normal levels of plasma proteinase inhibitors at concentrations far in excess of the concentration of the CHO cell trypsin-like serine protease) express uncleaved N-terminal PAR-2/Fc in culture supernatants. Both clipped and uncleaved proteins are purified using methods that are suitable for isolation and purification of proteins comprising an Fc regions (for example, using a MabSelect™ resin systems, from GE Healthcare, Piscataway, N.J.)). The resultant purified Fc-constructs are analyzed by amino terminal sequence analysis (Edman degradation), size exclusion chromatrography, absorbance spectral scan, and mass spectroscopy, as needed.
To analyze binding to uncleaved versus cleaved PAR-2, various amounts of purified uncleaved and clipped N-terminal PAR2-Fc are subjected to SDS-PAGE using 8-16% polyacrylamide gradient gels (Novex gels, Invitrogen Life Technologies) in a Tris-Glycine buffer system. Gel lanes containing See Blue standards (Novex, Invitrogen Life Technologies) for molecular weight identification are also included. Following electrophoresis, proteins are transferred from gels onto nitrocellulose membranes using a Novex XCell II Blot Module (Invitrogen Life Technologies). Membranes are blocked with 1:1, Odyssey blocking buffer, OBB, (LI-COR Biosciences):TBS (Tris Buffer Saline) overnight at 4 C with shaking. Antibodies to be analyzed are diluted in 1:1 OBB:TBS at a desired final concentration for 1 hr at room temperature. Membranes are washed extensively with 0.1% Tween 20 in TBS (3-4 changes of 100 ml over ˜1 hr). Membranes are then exposed to the appropriate secondary antibody-Alexa680 (Molecular Probes, Invitrogen Life Technologies) conjugate (goat anti-rabbit IgG, or goat anti-mouse IgG) diluted 1:5000 in 1:1 (OBB:TBS) for 1 hr at room temperature. Membranes are washed as described above, and if desired, analyzed using a LI-COR Odyssey Infrared Imaging System (LI-COR Biosciences).
as §2

[3] = Pharmacokinetic analysis in the paw edema study; type: in vivo, rat; details: SC administered
rats = experiment: Paw edema study, further experiments (IP versus SC, dose dependence); type: in vivo, rat
Lewis rats [4] = experiment: Carrageenan paw edema in Lewis rat (plethysmography); type: in vivo; details: IP 18 h prior to carrageenan, 1.5 mg/rat
Procedure: as §1

T2 sequence (P55085 with tags, fused parts or gaps limits assumed): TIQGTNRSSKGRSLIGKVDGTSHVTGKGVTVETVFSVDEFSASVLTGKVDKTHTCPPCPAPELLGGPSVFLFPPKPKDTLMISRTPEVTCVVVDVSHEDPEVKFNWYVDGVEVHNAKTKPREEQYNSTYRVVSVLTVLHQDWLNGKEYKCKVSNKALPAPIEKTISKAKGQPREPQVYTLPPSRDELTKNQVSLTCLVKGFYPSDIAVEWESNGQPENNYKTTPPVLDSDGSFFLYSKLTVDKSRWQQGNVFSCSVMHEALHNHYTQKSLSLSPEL

IC50 (PAR-2) [nM]	Binding to Cleavage Site Down stream [2]	Binding to Cleavage Site Up stream [2]	Molecule	change in thickness of the left knee as compared to the right knee, percent change (Lewis rats [1]; 0 Hr) [%]	Paw Edema, volume of water displaced per paw versus baseline (Sprague Dawley rats; 0 Hr) [mL]	Paw Edema, volume of water displaced per paw versus baseline (Sprague Dawley rats; 2 Hr) [mL]	Paw Edema, volume of water displaced per paw versus baseline (Sprague Dawley rats; 4 Hr) [mL]	Paw Edema, volume of water displaced per paw versus baseline (Sprague Dawley rats; 6 Hr) [mL]	Paw Edema, volume of water displaced per paw versus baseline (Lewis rats [4]; 0 Hr) [mL]	Paw Edema, volume of water displaced per paw versus baseline (Lewis rats [4]; 2 Hr) [mL]	other results
–	–	–	SLIGRL [reference compound]	0.00 ± 0.00	–	–	–	–	–	–	–
–	–	–	COc1ccc2c(c1)c(CC(=O)O)c(C)n2C(=O)c1ccc(Cl)cc1 [Indomethacin, reference compound]	–	0.00 ± 0.00	0.26 ± 0.22	0.28 ± 0.08	0.49 ± 0.16	–	–	–
> 1000	xx	–	9B12: anti-PAR-2 monoclonal antibody; heavy SEQ ID NO: 27, light SEQ ID NO: 29 (antibody, listed as Homo sapiens, V domains shown) VH: QVQLVESGGGVVQPGRSLRLSCAASGFTFSSYGMHWVRQAPGKGLEWVAVIWYDGSNKYYADSVKGRFTISRDNSKNTLYLQMNSLRAEDTAVYYCARDLGAAAGTGFDYWGQGTLVTVSS VL: QSVLTQPPSVSAAPGQKVTISCSGSSSNIGNNYVSWYQQLPGTAPKLLIYDNNKRPSGIPDRFSGSKSGTSATLGITGLQTGDEADYYCGTWDSSLSAGVVFGGGTKLTVL	–	–	–	–	–	–	–	–
–	–	xxx	1A1: anti-PAR-2 monoclonal antibody, blocking; heavy SEQ ID NO: 9, light SEQ ID NO: 11 (antibody, listed as Homo sapiens, V domains shown) VH: EVQLVQSGAEVKKPGESLKISCKGSGYNFISHWIGWVRQMPGKGLEWMGMIYPGDSDTRYSPSFQGQVTISADKSINTAYLQWRSLKASDTAMYFCARHGGITGTTFYYDFGMDVWGQGTTVTVSS VL: SYELTQPPSVSVSPGQTARITCSGDALPKQYASWYQQKPGQAPLLVIYRDSERPSGLPERFSGSSSGTTVTLTISGVQAEDEADYYCQSADSGGSYVFGTGTKVTVL	0.00 ± 0.00	0.00 ± 0.00	–	–	–	0.00 ± 0.00	0.15 ± 0.06	bioavailability [3]: suboptimal; effect on paw swelling (rats; administered IP): significantly decreased paw swelling; inhibition of swelling, dose dependence (rats; administered IP): dose-dependent manner; effect on paw swelling (rats; administered SC): not when administered SC; change in thickness of the left knee as compared to the right knee, percent change (Lewis rats [1]; 2 Hr): 1.10 ± 1.13%; change in thickness of the left knee as compared to the right knee, percent change (Lewis rats [1]; 72 Hr): 3.48 ± 0.66%
–	–	xxx	1C7: anti-PAR-2 monoclonal antibody; heavy SEQ ID NO: 17, light SEQ ID NO: 19 (antibody, listed as Homo sapiens, V domains shown) VH: EVQLVQSGAEVKKPGESLKISCKGSGYSFTSYWIGWVRQMPGKGLEWMGIIYPGDSDTRYSPSFQGQVTISADKSIRTAYLQWSSLKASDTAMYYCARHKGITGTTFYYDYGMDVWGQGTTVTVSS VL: SYELTQPPSVSVSPGQTARITCSGEALPKQYASWYQQKPGQAPVLVIYKDSERPSGIPERFSGSSSGTTVTLTISGVQAEDEADYYCQSADSNGAYVFGTGTKVTVL	–	–	–	–	–	–	–	–
> 1000	xx	–	2C6: binding non-blocking anti-PAR2 mAb; heavy SEQ ID NO: 23, light SEQ ID NO: 25 (antibody, listed as Homo sapiens, V domains shown) VH: QVQLVQSGAEVKKPGASVKVSCKASGYTFTGYFFHWVRQAPGQGLEWVGWINPNSGATHFAQKFQGRVTMTRDTSISTAYMELSRLRSDDTAVYYCARDGSNWNRDYGMDVWGQGTTVTVSS VL: QSVLTQPPSASGTPGQRVTISCSGSSSNIGINHVYWYQQLPGTAPKIFIYRNNQRPSGVPDRFSGSKSGTSASLAISGLRSEDEADYYCAVWDDSLSGVVFGGGTKLTVLG	–	0.00 ± 0.00	0.57 ± 0.08	1.06 ± 0.16	1.13 ± 0.08	0.00 ± 0.00	0.22 ± 0.02	Paw Edema, volume of water displaced per paw versus baseline (Lewis rats [4]; 4 Hr): 0.22 ± 0.05 mL; Paw Edema, volume of water displaced per paw versus baseline (Lewis rats [4]; 6 Hr): 0.32 ± 0.06 mL; Paw Edema, volume of water displaced per paw versus baseline (Lewis rats [4]; 8 Hr): 0.51 ± 0.11 mL

Reference: US8470556B2, “Nucleic acids that encode antigen binding proteins that bind PAR-2” (Amgen Inc., priority 2007, dated 2013)
